The source of these data is patent US20030118612A1 (MAXYGEN, published 2003).

T1: human G-CSF receptor (human, UniProt Q99062 25-836)
T1 sequence (looked up): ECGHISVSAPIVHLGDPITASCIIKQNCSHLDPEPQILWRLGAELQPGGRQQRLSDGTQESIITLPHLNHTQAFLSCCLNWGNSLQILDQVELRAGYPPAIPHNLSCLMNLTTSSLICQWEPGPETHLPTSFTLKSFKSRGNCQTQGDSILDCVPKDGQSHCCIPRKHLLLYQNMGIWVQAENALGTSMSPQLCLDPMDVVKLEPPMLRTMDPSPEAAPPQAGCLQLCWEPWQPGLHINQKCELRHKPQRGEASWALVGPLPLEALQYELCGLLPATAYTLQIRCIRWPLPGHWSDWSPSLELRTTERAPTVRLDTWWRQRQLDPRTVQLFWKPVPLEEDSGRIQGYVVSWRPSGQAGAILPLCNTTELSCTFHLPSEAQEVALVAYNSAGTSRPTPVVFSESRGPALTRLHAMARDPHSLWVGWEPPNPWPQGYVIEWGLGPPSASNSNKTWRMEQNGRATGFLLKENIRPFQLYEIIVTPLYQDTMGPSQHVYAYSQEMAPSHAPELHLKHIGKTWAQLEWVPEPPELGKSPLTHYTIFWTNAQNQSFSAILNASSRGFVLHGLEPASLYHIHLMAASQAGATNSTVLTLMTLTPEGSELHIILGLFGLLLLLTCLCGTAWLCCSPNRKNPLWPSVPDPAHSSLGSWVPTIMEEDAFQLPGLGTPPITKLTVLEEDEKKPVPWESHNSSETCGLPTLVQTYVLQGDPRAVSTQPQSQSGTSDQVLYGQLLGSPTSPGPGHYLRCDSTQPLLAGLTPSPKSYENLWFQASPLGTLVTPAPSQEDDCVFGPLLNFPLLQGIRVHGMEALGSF

B1: G-CSF with N-terminal Histidine tag, non-conjugated (ligand)
chain: MKHQHQHQHQHQHQQTPLGPASSLPQSFLLKCLEQVRKIQGDGAALQEKLCATYKLCHPEELVLLGHSLGIPWAPLSSCPSQALQLAGCLSQLHSGLFLYQGLLQALEGISPELGPTLDTLQLDVADFATTIWQQMEELGMAPALQPTQGAMPAFASAFQRRAGGVLVASHLQSFLEVSYRVLRHLAQP
B2: G-CSF variant 23R conjugated to SPA-PEG 5000 (ligand)
chain: TPLGPASSLPQSFLLKCLEQVRRIQGDGAALQEKLCATYKLCHPEELVLLGHSLGIPWAPLSSCPSQALQLAGCLSQLHSGLFLYQGLLQALEGISPELGPTLDTLQLDVADFATTIWQQMEELGMAPALQPTQGAMPAFASAFQRRAGGVLVASHLQSFLEVSYRVLRHLAQP
modifications: SPA-PEG 5000 conjugated to the available PEGylation sites
B3: G-CSF variant 34A, non-conjugated (ligand)
chain: TPLGPASSLPQSFLLKCLEQVRKIQGDGAALQEALCATYKLCHPEELVLLGHSLGIPWAPLSSCPSQALQLAGCLSQLHSGLFLYQGLLQALEGISPELGPTLDTLQLDVADFATTIWQQMEELGMAPALQPTQGAMPAFASAFQRRAGGVLVASHLQSFLEVSYRVLRHLAQP
B4: G-CSF variant K16/34/40R Q120K T133K S142K conjugated to SPA-PEG 5000 (ligand)
chain: TPLGPASSLPQSFLLRCLEQVRKIQGDGAALQERLCATYRLCHPEELVLLGHSLGIPWAPLSSCPSQALQLAGCLSQLHSGLFLYQGLLQALEGISPELGPTLDTLQLDVADFATTIWQKMEELGMAPALQPKQGAMPAFAKAFQRRAGGVLVASHLQSFLEVSYRVLRHLAQP
modifications: SPA-PEG 5000 conjugated to the available PEGylation sites
B5: G-CSF variant K16/23Q, non-conjugated (ligand)
chain: TPLGPASSLPQSFLLQCLEQVRQIQGDGAALQEKLCATYKLCHPEELVLLGHSLGIPWAPLSSCPSQALQLAGCLSQLHSGLFLYQGLLQALEGISPELGPTLDTLQLDVADFATTIWQQMEELGMAPALQPTQGAMPAFASAFQRRAGGVLVASHLQSFLEVSYRVLRHLAQP
B6: G-CSF variant K16/23Q conjugated to SPA-PEG 5000 (ligand)
chain: TPLGPASSLPQSFLLQCLEQVRQIQGDGAALQEKLCATYKLCHPEELVLLGHSLGIPWAPLSSCPSQALQLAGCLSQLHSGLFLYQGLLQALEGISPELGPTLDTLQLDVADFATTIWQQMEELGMAPALQPTQGAMPAFASAFQRRAGGVLVASHLQSFLEVSYRVLRHLAQP
modifications: SPA-PEG 5000 conjugated to the available PEGylation sites
B7: G-CSF variant K16/34R conjugated to SPA-PEG 5000 (ligand)
chain: TPLGPASSLPQSFLLRCLEQVRKIQGDGAALQERLCATYKLCHPEELVLLGHSLGIPWAPLSSCPSQALQLAGCLSQLHSGLFLYQGLLQALEGISPELGPTLDTLQLDVADFATTIWQQMEELGMAPALQPTQGAMPAFASAFQRRAGGVLVASHLQSFLEVSYRVLRHLAQP
modifications: SPA-PEG 5000 conjugated to the available PEGylation sites
B8: G-CSF variant 40R, non-conjugated (ligand)
chain: TPLGPASSLPQSFLLKCLEQVRKIQGDGAALQEKLCATYRLCHPEELVLLGHSLGIPWAPLSSCPSQALQLAGCLSQLHSGLFLYQGLLQALEGISPELGPTLDTLQLDVADFATTIWQQMEELGMAPALQPTQGAMPAFASAFQRRAGGVLVASHLQSFLEVSYRVLRHLAQP
B9: G-CSF variant 34Q, non-conjugated (ligand)
chain: TPLGPASSLPQSFLLKCLEQVRKIQGDGAALQEQLCATYKLCHPEELVLLGHSLGIPWAPLSSCPSQALQLAGCLSQLHSGLFLYQGLLQALEGISPELGPTLDTLQLDVADFATTIWQQMEELGMAPALQPTQGAMPAFASAFQRRAGGVLVASHLQSFLEVSYRVLRHLAQP
B10: G-CSF variant 34Q conjugated to SPA-PEG 5000 (ligand)
chain: TPLGPASSLPQSFLLKCLEQVRKIQGDGAALQEQLCATYKLCHPEELVLLGHSLGIPWAPLSSCPSQALQLAGCLSQLHSGLFLYQGLLQALEGISPELGPTLDTLQLDVADFATTIWQQMEELGMAPALQPTQGAMPAFASAFQRRAGGVLVASHLQSFLEVSYRVLRHLAQP
modifications: SPA-PEG 5000 conjugated to the available PEGylation sites
B11: G-CSF variant K16/23R, non-conjugated (ligand)
chain: TPLGPASSLPQSFLLRCLEQVRRIQGDGAALQEKLCATYKLCHPEELVLLGHSLGIPWAPLSSCPSQALQLAGCLSQLHSGLFLYQGLLQALEGISPELGPTLDTLQLDVADFATTIWQQMEELGMAPALQPTQGAMPAFASAFQRRAGGVLVASHLQSFLEVSYRVLRHLAQP
B12: G-CSF variant K16/23R conjugated to SPA-PEG 5000 (ligand)
chain: TPLGPASSLPQSFLLRCLEQVRRIQGDGAALQEKLCATYKLCHPEELVLLGHSLGIPWAPLSSCPSQALQLAGCLSQLHSGLFLYQGLLQALEGISPELGPTLDTLQLDVADFATTIWQQMEELGMAPALQPTQGAMPAFASAFQRRAGGVLVASHLQSFLEVSYRVLRHLAQP
modifications: SPA-PEG 5000 conjugated to the available PEGylation sites
B13: G-CSF variant K34/40R, non-conjugated (ligand)
chain: TPLGPASSLPQSFLLKCLEQVRKIQGDGAALQERLCATYRLCHPEELVLLGHSLGIPWAPLSSCPSQALQLAGCLSQLHSGLFLYQGLLQALEGISPELGPTLDTLQLDVADFATTIWQQMEELGMAPALQPTQGAMPAFASAFQRRAGGVLVASHLQSFLEVSYRVLRHLAQP
B14: G-CSF variant K34/40R conjugated to SPA-PEG 5000 (ligand)
chain: TPLGPASSLPQSFLLKCLEQVRKIQGDGAALQERLCATYRLCHPEELVLLGHSLGIPWAPLSSCPSQALQLAGCLSQLHSGLFLYQGLLQALEGISPELGPTLDTLQLDVADFATTIWQQMEELGMAPALQPTQGAMPAFASAFQRRAGGVLVASHLQSFLEVSYRVLRHLAQP
modifications: SPA-PEG 5000 conjugated to the available PEGylation sites
B15: G-CSF variant K16/34/40R T105K Q120K T133K conjugated to SPA-PEG 5000 (ligand)
chain: TPLGPASSLPQSFLLRCLEQVRKIQGDGAALQERLCATYRLCHPEELVLLGHSLGIPWAPLSSCPSQALQLAGCLSQLHSGLFLYQGLLQALEGISPELGPTLDKLQLDVADFATTIWQKMEELGMAPALQPKQGAMPAFASAFQRRAGGVLVASHLQSFLEVSYRVLRHLAQP
modifications: SPA-PEG 5000 conjugated to the available PEGylation sites
B16: G-CSF variant 40R conjugated to SPA-PEG 5000 (ligand)
chain: TPLGPASSLPQSFLLKCLEQVRKIQGDGAALQEKLCATYRLCHPEELVLLGHSLGIPWAPLSSCPSQALQLAGCLSQLHSGLFLYQGLLQALEGISPELGPTLDTLQLDVADFATTIWQQMEELGMAPALQPTQGAMPAFASAFQRRAGGVLVASHLQSFLEVSYRVLRHLAQP
modifications: SPA-PEG 5000 conjugated to the available PEGylation sites
B17: G-CSF variant 34R conjugated to SPA-PEG 5000 (ligand)
chain: TPLGPASSLPQSFLLKCLEQVRKIQGDGAALQERLCATYKLCHPEELVLLGHSLGIPWAPLSSCPSQALQLAGCLSQLHSGLFLYQGLLQALEGISPELGPTLDTLQLDVADFATTIWQQMEELGMAPALQPTQGAMPAFASAFQRRAGGVLVASHLQSFLEVSYRVLRHLAQP
modifications: SPA-PEG 5000 conjugated to the available PEGylation sites
B18: G-CSF variant K16/34/40R Q120K T133K S142K, non-conjugated (ligand)
chain: TPLGPASSLPQSFLLRCLEQVRKIQGDGAALQERLCATYRLCHPEELVLLGHSLGIPWAPLSSCPSQALQLAGCLSQLHSGLFLYQGLLQALEGISPELGPTLDTLQLDVADFATTIWQKMEELGMAPALQPKQGAMPAFAKAFQRRAGGVLVASHLQSFLEVSYRVLRHLAQP
B19: G-CSF variant K16/34R, non-conjugated (ligand)
chain: TPLGPASSLPQSFLLRCLEQVRKIQGDGAALQERLCATYKLCHPEELVLLGHSLGIPWAPLSSCPSQALQLAGCLSQLHSGLFLYQGLLQALEGISPELGPTLDTLQLDVADFATTIWQQMEELGMAPALQPTQGAMPAFASAFQRRAGGVLVASHLQSFLEVSYRVLRHLAQP
B20: G-CSF variant 34A conjugated to SPA-PEG 5000 (ligand)
chain: TPLGPASSLPQSFLLKCLEQVRKIQGDGAALQEALCATYKLCHPEELVLLGHSLGIPWAPLSSCPSQALQLAGCLSQLHSGLFLYQGLLQALEGISPELGPTLDTLQLDVADFATTIWQQMEELGMAPALQPTQGAMPAFASAFQRRAGGVLVASHLQSFLEVSYRVLRHLAQP
modifications: SPA-PEG 5000 conjugated to the available PEGylation sites
B21: G-CSF variant 34R, non-conjugated (ligand)
chain: TPLGPASSLPQSFLLKCLEQVRKIQGDGAALQERLCATYKLCHPEELVLLGHSLGIPWAPLSSCPSQALQLAGCLSQLHSGLFLYQGLLQALEGISPELGPTLDTLQLDVADFATTIWQQMEELGMAPALQPTQGAMPAFASAFQRRAGGVLVASHLQSFLEVSYRVLRHLAQP
B22: G-CSF variant K16/40R, non-conjugated (ligand)
chain: TPLGPASSLPQSFLLRCLEQVRKIQGDGAALQEKLCATYRLCHPEELVLLGHSLGIPWAPLSSCPSQALQLAGCLSQLHSGLFLYQGLLQALEGISPELGPTLDTLQLDVADFATTIWQQMEELGMAPALQPTQGAMPAFASAFQRRAGGVLVASHLQSFLEVSYRVLRHLAQP

The test addresses T1, human G-CSF receptor. As to the kind of experiment: cell-based or functional assay.
In the case of B1, the “EC50 (% of hG-CSF) non-conjugated” value was 10 % of hG-CSF.

Consider B2, for which the “EC50 (% of hG-CSF) conjugated to SPA-PEG 5000” value (from here on “EC50 (% of hG-CSF) conjugated”) is 0.1 % of hG-CSF. As for B3, the “EC50 (% of hG-CSF) non-conjugated” value was 80 % of hG-CSF. B4: the “EC50 (% of hG-CSF) conjugated” value is 1 % of hG-CSF. Turning to B5, the “EC50 (% of hG-CSF) non-conjugated” value was 80 % of hG-CSF. Consider B6, for which the “EC50 (% of hG-CSF) conjugated” value is 1 % of hG-CSF. On the same count and under the same terms, under B7 stands 10 % of hG-CSF. For B8, the “EC50 (% of hG-CSF) non-conjugated” value is 50 % of hG-CSF. Take B9: the “EC50 (% of hG-CSF) non-conjugated” value is 70 % of hG-CSF. As for B10, the “EC50 (% of hG-CSF) conjugated” value was 1 % of hG-CSF. For B11, the “EC50 (% of hG-CSF) non-conjugated” value was 100 % of hG-CSF. On to B12, for which the “EC50 (% of hG-CSF) conjugated” value was 1 % of hG-CSF. For B13, the “EC50 (% of hG-CSF) non-conjugated” value is 50 % of hG-CSF. Consider B14, for which the “EC50 (% of hG-CSF) conjugated” value is 5 % of hG-CSF. On to B15, for which the “EC50 (% of hG-CSF) conjugated” value is 1 % of hG-CSF.

Take B16: the “EC50 (% of hG-CSF) conjugated” value is 1 % of hG-CSF.

As for B17, the “EC50 (% of hG-CSF) conjugated” value is 1 % of hG-CSF. As for B18, the “EC50 (% of hG-CSF) non-conjugated” value is 10 % of hG-CSF.

Take B19: the “EC50 (% of hG-CSF) non-conjugated” value is 100 % of hG-CSF. Consider B20, for which the “EC50 (% of hG-CSF) conjugated” value is 1 % of hG-CSF. Regarding B21, the “EC50 (% of hG-CSF) non-conjugated” value was 100 % of hG-CSF. Same read-out and setting: under B22 stands 50 % of hG-CSF.
